Paper PMC7927433 (The Journal of Experimental Medicine, 2020)

Biological target: T1, recombinant XPF-HA (human, UniProt Q92889 1-916)
T1 sequence: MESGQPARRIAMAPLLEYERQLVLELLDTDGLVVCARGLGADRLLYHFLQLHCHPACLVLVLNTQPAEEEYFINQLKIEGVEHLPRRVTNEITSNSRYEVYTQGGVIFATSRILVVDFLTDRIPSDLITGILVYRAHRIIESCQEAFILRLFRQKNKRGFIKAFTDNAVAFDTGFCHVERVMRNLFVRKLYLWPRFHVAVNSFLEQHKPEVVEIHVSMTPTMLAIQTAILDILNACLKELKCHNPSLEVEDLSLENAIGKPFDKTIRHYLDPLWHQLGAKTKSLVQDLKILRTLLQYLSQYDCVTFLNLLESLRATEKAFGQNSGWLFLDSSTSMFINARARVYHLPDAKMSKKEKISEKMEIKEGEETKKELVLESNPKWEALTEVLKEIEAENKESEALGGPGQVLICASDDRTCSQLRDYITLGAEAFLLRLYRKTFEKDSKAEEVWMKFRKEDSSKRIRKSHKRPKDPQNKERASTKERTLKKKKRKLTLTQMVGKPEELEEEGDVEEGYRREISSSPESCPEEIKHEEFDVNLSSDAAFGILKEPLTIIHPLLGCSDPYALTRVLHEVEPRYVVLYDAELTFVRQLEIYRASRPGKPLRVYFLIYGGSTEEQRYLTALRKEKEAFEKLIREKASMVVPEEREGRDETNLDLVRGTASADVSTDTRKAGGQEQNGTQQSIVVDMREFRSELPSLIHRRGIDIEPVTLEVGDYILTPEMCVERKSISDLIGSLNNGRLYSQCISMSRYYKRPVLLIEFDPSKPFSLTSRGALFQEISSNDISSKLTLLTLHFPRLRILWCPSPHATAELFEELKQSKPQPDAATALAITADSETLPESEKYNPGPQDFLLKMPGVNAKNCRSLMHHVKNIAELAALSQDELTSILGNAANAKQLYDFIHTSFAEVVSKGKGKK
Experiment: SEC

B1: recombinant ERCC1^R156W-His (natural protein)
chain: MDPGKDKEGVPQPSGPPARKKFVIPLDEDEVPPGVAKPLFRSTQSLPTVDTSAQAAPQTYAEYAISQPLEGAGATCPTGSEPLAGETPNQALKPGAKSNSIIVSPRQRGNPVLKFVRNVPWEFGDVIPDYVLGQSTCALFLSLRYHNLHPDYIHGWLQSLGKNFALRVLLVQVDVKDPQQALKELAKMCILADCTLILAWSPEEAGRYLETYKAYEQKPADLLMEKLEQDFVSRVTECLTTVKSVNKTDSQTLLTTFGSLEQLIAASREDLALCPGLGPQKARRLFDVLHEPFLKVP
binding result: binds
